Laboratory results: patent US20240141039A1 (AGENUS, published 2024)

T1: wild type full-length human CD96 isoform 1 expressed on CHO cells (human, UniProt P40200 22-585)
T1 construct: whole, on cells; also called human CD96-CHO (isoform 1)
T1 sequence (looked up): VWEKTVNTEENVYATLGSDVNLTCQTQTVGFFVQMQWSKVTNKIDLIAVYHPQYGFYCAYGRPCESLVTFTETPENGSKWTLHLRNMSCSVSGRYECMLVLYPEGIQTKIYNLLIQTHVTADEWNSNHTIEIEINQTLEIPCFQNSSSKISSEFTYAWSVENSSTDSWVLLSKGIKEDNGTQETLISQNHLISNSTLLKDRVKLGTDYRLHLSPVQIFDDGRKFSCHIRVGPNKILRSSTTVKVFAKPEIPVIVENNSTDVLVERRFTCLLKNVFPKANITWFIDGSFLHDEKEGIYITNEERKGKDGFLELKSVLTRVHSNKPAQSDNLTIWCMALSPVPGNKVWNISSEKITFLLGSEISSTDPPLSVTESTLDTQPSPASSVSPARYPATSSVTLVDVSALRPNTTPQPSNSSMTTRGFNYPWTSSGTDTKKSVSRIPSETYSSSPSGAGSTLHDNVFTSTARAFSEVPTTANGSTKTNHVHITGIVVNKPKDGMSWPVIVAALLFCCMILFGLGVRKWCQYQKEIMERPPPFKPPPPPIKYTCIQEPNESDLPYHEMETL

T2: wild type full-length human CD96 isoform 2 expressed on CHO cells (human, UniProt P40200-2 22-569)
T2 construct: whole, on cells; also called human CD96-CHO (isoform 2); human CD96 (iso2) CHO cells
T2 sequence (looked up): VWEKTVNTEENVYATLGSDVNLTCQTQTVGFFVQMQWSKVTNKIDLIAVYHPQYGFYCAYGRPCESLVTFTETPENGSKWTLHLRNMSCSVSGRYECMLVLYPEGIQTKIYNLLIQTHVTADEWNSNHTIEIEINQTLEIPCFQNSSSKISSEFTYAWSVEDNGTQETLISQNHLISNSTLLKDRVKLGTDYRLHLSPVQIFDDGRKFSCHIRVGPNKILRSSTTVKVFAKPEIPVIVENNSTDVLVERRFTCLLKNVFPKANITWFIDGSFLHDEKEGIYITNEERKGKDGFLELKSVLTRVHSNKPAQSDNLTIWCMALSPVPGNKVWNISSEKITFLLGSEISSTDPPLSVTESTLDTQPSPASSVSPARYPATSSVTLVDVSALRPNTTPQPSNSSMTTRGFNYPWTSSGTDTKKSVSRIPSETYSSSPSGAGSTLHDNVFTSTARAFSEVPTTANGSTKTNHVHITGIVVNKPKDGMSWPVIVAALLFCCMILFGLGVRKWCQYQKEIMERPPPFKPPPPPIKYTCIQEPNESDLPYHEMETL


Key:
[1] = target: T1, wild type full-length human CD96 …; experiment: flow cytometry, human CD96 (isoform 1) CHO cells, 1 experiment
Protocol: (§1) For the antibody binding assay, a frozen aliquot of human CD96-CHO cells (isoform 1 or isoform 2) was thawed at 37° C. and then transferred to a tube containing DPBS supplemented with 0.5% Bovine Serum Albumin and 0.05% Sodium Azide (FACS Buffer). Cells were centrifuged at 300 g for five minutes. The supernatant was discarded, and cells resuspended in FACS buffer were seeded in a 96-well U-bottom tissue culture plate at a density of 2×10⁵ cells per well in 50 μL. In a separate microplate, a 2× concentrated intermediate stock of each antibody was prepared. Antibodies were serially diluted 1-to-3 in FACS buffer. A total of 11 working dilutions ranging from 60 μg/mL to 0.001 μg/mL were prepared. Fifty microlitres of each dilution were then transferred to the microplate containing human CD96-CHO cells. The cells were then incubated for 45 minutes at 4° C. […] After a 30-minute incubation on ice, the cells were washed twice with cold FACS Buffer, and the cells were analyzed by flow cytometry (BD LSR Fortessa Flow Cytometer). The data were analyzed using the FlowJo software by sequentially gating the FSC-A vs. SSC-A, and SSC-H vs. SSC-A. Mean fluorescence intensity (MFI) values for PE were calculated, and the data were plotted by GraphPad Prism software.

[2] = target: T2, wild type full-length human CD96 …; experiment: flow cytometry, human CD96 (isoform 2) CHO cells, geomean of 2 experiments
Protocol: as §1

[3] = target: T2, wild type full-length human CD96 …; experiment: flow cytometry on CHO cells expressing human CD96 isoform 2, PE anti-human IgG Fc detection
Protocol: as §1

[4] = target: T3, wild type full-length cynomolgus monkey TIGIT expressed on CHO cells (cynomolgus monkey, UniProt A0A7N9I9V4 89-312); experiment: flow cytometry, blocking of CD155-Fc-PE binding to cynomolgus TIGIT CHO cells, geomean of 2 experiments
T3 construct: whole, on cells; also called cynomolgus TIGIT-CHO cells
T3 sequence (A0A7N9I9V4 entry or part of it): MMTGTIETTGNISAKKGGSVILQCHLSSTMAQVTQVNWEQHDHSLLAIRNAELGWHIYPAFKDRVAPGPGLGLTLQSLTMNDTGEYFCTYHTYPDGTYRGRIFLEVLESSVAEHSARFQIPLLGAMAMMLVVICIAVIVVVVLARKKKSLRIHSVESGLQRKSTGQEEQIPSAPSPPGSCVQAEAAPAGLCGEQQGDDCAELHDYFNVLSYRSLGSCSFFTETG

[5] = target: T2, wild type full-length human CD96 …; experiment: flow cytometry, blocking of CD155-Fc-PE binding to human CD96 (isoform 2) CHO cells, geomean of 3 experiments
Protocol: A 4× concentrated intermediate stock of each multispecific molecule was prepared in a microplate. Antibodies were serially diluted 1-to-3 in FACS buffer. […] Lastly, 25 μL of wild type human CD96-CHO cells (isoform 2), prepared as described above, were added to each well. After a 30-minute incubation on ice, the cells were washed twice with cold FACS Buffer, and the cells were analyzed by flow cytometry (BD LSR Fortessa Flow Cytometer). The data were analyzed using the FlowJo software by sequentially gating on the FSC-A vs. SSC-A and SSC-H vs. SSC-A. Mean fluorescence intensity (MFI) values for PE were calculated, and the data were plotted by GraphPad Prism software and analyzed as described above.

EC50 [1]	EC50 [2]	EC50 (read off the curve) [3]	IC50 [4]	IC50 [5]	Binder
0.0113 µg/mL	0.196 µg/mL	~0.2 µg/mL	2.35 µg/mL	5.63 µg/mL	anti-TIGIT×CD96 multispecific molecule BA123 (bispecific antibody, human IgG1, kappa, lambda, copies: 1 + 1 + 1 + 1) heavy 1: QVQLVQSGAEVKKPGASVKVSCKASGYTFTSYGISWVRQAPGQGLEWMGWISAYNANTNYAQKLQGRVTMTTDTSTSTAYMELRSLRSDDTAVYYCARSAGVLGGMDVWGRGTLVTVSSASTKGPSVFPLAPSSKSTSGGTAALGCLVKDYFPEPVTVSWNSGALTSGVHTFPAVLQSSGLYSLSSVVTVPSSSLGTQTYICNVNHKPSNTKVDKRVEPKSCDKTHTCPPCPAPELLGGPDVFLFPPKPKDTLMISRTPEVTCVVVDVSHEDPEVKFNWYVDGVEVHNAKTKPREEQYNSTYRVVSVLTVLHQDWLNGKEYKCKVSNKALPAPIEKTISKAKGQPREPQVYTLPPSREEMTKNQVSLSCAVKGFYPSDIAVEWESNGQPENNYKTTPPVLDSDGSFFLVSKLTVDKSRWQQGNVFSCSVMHEALHNHYTQKSLSLSPG light 1: not shown heavy 2: EVQLVQSGAEVKKPGSSVKVSCKASGYTFASYGISWVRQAPGQGLEWMGGITPFFNRVDVAEKFQGRVTITADKSTSTAYIELSSLRSEDTAVYYCARDLRRGGVGDAFDIWGRGTLVTVSSASTKGPSVFPLAPSSKSTSGGTAALGCLVKDYFPEPVTVSWNSGALTSGVHTFPAVLQSSGLYSLSSVVTVPSSSLGTQTYICNVNHKPSNTKVDKRVEPKSCDKTHTCPPCPAPELLGGPDVFLFPPKPKDTLMISRTPEVTCVVVDVSHEDPEVKFNWYVDGVEVHNAKTKPREEQYNSTYRVVSVLTVLHQDWLNGKEYKCKVSNKALPLPEEKTISKAKGQPREPQVYTLPPSREEMTKNQVSLWCLVKGFYPSDIAVEWESNGQPENNYKTTPPVLDSDGSFFLYSKLTVDKSRWQQGNVFSCSVMHEALHNHYTQKSLSLSPG light 2: QSALTQPRSVSGSPGQSVTISCTGTSPDVGSHAYRSWYQQHPGKAPKLMIYEVSYRPSGVSNRFSGSKSGNTASLTISGLQAEDEADYYCSSYPPSSATVFGAGTKLTVLGQPKAAPSVTLFPPSSEELQANKATLVCLISDFYPGAVTVAWKADSSPVKAGVETTTPSKQSNNKYAASSYLSLTPEQWKSHRSYSCQVTHEGSTVEKTVAPTEC
0.0489 µg/mL	0.0951 µg/mL	~0.03 µg/mL	2.81 µg/mL	1.99 µg/mL	anti-TIGIT×CD96 multispecific molecule BA127 (bispecific antibody, human IgG1, kappa, lambda, Anti-CD96 arm = BA139, anti-TIGIT arm = BA150; copies: 1 + 1 + 1 + 1) heavy 1: QVQLVQSGAEVKKPGASVKVSCKASGYTFTTYALHWVRQAPGQRLEWMGWINTGSGDTKYSQKFQGRVTITRDTSASTAYMELSSLRSEDTAVYYCARSLGVYYGMDVWGQGTLVTVSSASTKGPSVFPLAPSSKSTSGGTAALGCLVKDYFPEPVTVSWNSGALTSGVHTFPAVLQSSGLYSLSSVVTVPSSSLGTQTYICNVNHKPSNTKVDKRVEPKSCDKTHTCPPCPAPELLGGPDVFLFPPKPKDTLMISRTPEVTCVVVDVSHEDPEVKFNWYVDGVEVHNAKTKPREEQYNSTYRVVSVLTVLHQDWLNGKEYKCKVSNKALPAPIEKTISKAKGQPREPQVYTLPPSREEMTKNQVSLSCAVKGFYPSDIAVEWESNGQPENNYKTTPPVLDSDGSFFLVSKLTVDKSRWQQGNVFSCSVMHEALHNHYTQKSLSLSPG light 1: not shown heavy 2: EVQLVQSGAEVKKPGSSVKVSCKASGYTFASYGISWVRQAPGQGLEWMGGITPFFNRVDVAEKFQGRVTITADKSTSTAYIELSSLRSEDTAVYYCARDLRRGGVGDAFDIWGRGTLVTVSSASTKGPSVFPLAPSSKSTSGGTAALGCLVKDYFPEPVTVSWNSGALTSGVHTFPAVLQSSGLYSLSSVVTVPSSSLGTQTYICNVNHKPSNTKVDKRVEPKSCDKTHTCPPCPAPELLGGPDVFLFPPKPKDTLMISRTPEVTCVVVDVSHEDPEVKFNWYVDGVEVHNAKTKPREEQYNSTYRVVSVLTVLHQDWLNGKEYKCKVSNKALPLPEEKTISKAKGQPREPQVYTLPPSREEMTKNQVSLWCLVKGFYPSDIAVEWESNGQPENNYKTTPPVLDSDGSFFLYSKLTVDKSRWQQGNVFSCSVMHEALHNHYTQKSLSLSPG light 2: QSALTQPRSVSGSPGQSVTISCTGTSPDVGSHAYRSWYQQHPGKAPKLMIYEVSYRPSGVSNRFSGSKSGNTASLTISGLQAEDEADYYCSSYPPSSATVFGAGTKLTVLGQPKAAPSVTLFPPSSEELQANKATLVCLISDFYPGAVTVAWKADSSPVKAGVETTTPSKQSNNKYAASSYLSLTPEQWKSHRSYSCQVTHEGSTVEKTVAPTEC
